Source: PMC10989989, “The archaeal KEOPS complex possesses a functional Gon7 homolog and has an essential function independent of the cellular t^6A modification level” (mLife, 2023)

T1: Kae1‐Pcc1 subcomplex (2Kae1:2Pcc1), co-expressed in E. coli (Saccharolobus islandicus REY15A, UniProt F0NFC9 1-331; F0NF65 1-91)
T1 construct: Kae1 of Saccharolobus islandicus REY15A, no tag; Pcc1 of Saccharolobus islandicus REY15A, encoded by SiRe_1278; The preformed complex (chains as m11 and m16) to which Pcc1-like was added; after addition the product is 1:1:1; also called 2Kae1:2Pcc1 subcomplex; Kae1‐Pcc1‐Pcc1‐Kae1; source: E. coli BL21(DE3)-Codon plus-RIL, pRSF-Duet1, no-tagged SisKae1 co-expressed with His-tagged SisPcc1; …
T1 sequence (looked up) 1: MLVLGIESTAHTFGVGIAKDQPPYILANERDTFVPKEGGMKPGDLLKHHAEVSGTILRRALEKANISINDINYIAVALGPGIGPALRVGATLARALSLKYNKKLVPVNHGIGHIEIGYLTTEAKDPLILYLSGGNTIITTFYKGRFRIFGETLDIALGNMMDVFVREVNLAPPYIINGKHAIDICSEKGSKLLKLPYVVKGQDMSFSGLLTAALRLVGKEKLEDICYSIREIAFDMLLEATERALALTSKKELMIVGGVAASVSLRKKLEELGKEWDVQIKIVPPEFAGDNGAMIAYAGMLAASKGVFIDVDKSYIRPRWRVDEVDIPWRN
T1 sequence (looked up) 2: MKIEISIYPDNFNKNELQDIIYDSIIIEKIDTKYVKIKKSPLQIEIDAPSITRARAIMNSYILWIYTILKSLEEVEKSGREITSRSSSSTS

T2: His-tagged SisPcc1 co-expressed with no-tagged SisKae1 in E. coli (Saccharolobus islandicus REY15A, UniProt F0NF65 1-91)
T2 construct: Pcc1 of Saccharolobus islandicus REY15A, encoded by SiRe_1278; Pcc1 is insoluble when expressed alone in E. coli; also called His‐Pcc1; source: E. coli BL21(DE3)-Codon plus-RIL, pRSF-Duet1, co-expressed with no-tagged SisKae1; pulled down and co-purified (Ni-NTA, HiTrap Q FF, Superdex 200)
T2 sequence (looked up): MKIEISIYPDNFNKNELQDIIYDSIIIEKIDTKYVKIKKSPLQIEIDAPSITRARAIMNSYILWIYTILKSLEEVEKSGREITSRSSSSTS


What was measured:
[1] = target: T1, Kae1‐Pcc1 subcomplex (2Kae1:2Pcc1), …; assay: SEC; 1.5-fold Pcc1-like added to the 2Kae1:2Pcc1 subcomplex, 60°C for 30 min before loading; Superdex 200 Increase 10/300; 200 mM NaCl, 50 mM Tris-HCl pH 8.0, 5% glycerol; details: both partners purified
[2] = target: SisKae1 mixed in five-fold excess with SisPcc1-like for SEC (Saccharolobus islandicus REY15A); assay: SEC; Kae1 in five-fold excess: 6 μM SisPcc1-like mixed with 30 μM SisKae1, 60°C for 30 min before loading; Superdex 200 Increase 10/300; 200 mM NaCl, 50 mM Tris-HCl pH 8.0, 5% glycerol
[3] = target: Flag-tagged SisKae1 co-expressed with His-tagged SisPcc1-like in E. coli (Saccharolobus islandicus REY15A); assay: SEC; co-expressed Kae1/Pcc1-like, Pcc1-like about 10-fold in excess of Kae1; Superdex 200 Increase 10/300; 200 mM NaCl, 50 mM Tris-HCl pH 8.0, 5% glycerol
[4] = target: T2, His-tagged SisPcc1 co-expressed with …; assay: SEC; co-expressed Kae1/Pcc1 subcomplex; Superdex 200 Increase 10/300; 200 mM NaCl, 50 mM Tris-HCl pH 8.0, 5% glycerol; masses from protein standards; details: both partners purified

Binder | stoichiometry N [1] | stoichiometry N (Pcc1-like per Kae1) [2] | stoichiometry N (Pcc1-like per Kae1) [3] | stoichiometry N [4]
His-tagged SisPcc1‐like from E. coli (natural protein, Saccharolobus islandicus REY15A, UniProt F0NIH8 1-81, looked up, Pcc1-like (Gon7-like) of Saccharolobus islandicus REY15A, encoded by SiRe_1701; also called His‐SisPcc1‐like; source: E. coli BL21(DE3)-Codon plus-RIL, pRSF-Duet1 (alone, or co-expressed with Flag-tagged SisKae1 or SisPcc1); purified (Ni-NTA, HiTrap Q FF, Superdex 200)) MIELRILSEHEDAELIIRSLNVDNVNLPEGMSIQTKVEGKELEIVIKMRITKPNDLMTVRNTADEILAHIKALQSSFDAIS | 1 Kae1:Pcc1:Pcc1-like 1:1:1 | 1 | 2 | –
No-tagged SisKae1 from E. coli (natural protein, Saccharolobus islandicus REY15A, UniProt F0NFC9 1-331, looked up, Kae1 of Saccharolobus islandicus REY15A, no tag; Two vectors (pET15b alone; pRSF-Duet1 with His-Pcc1) give the same untagged protein; source: E. coli BL21(DE3)-Codon plus-RIL; alone (pET15b), purified; also co-expressed with His-tagged SisPcc1 (pRSF-Duet1), pulled down and co-purified) MLVLGIESTAHTFGVGIAKDQPPYILANERDTFVPKEGGMKPGDLLKHHAEVSGTILRRALEKANISINDINYIAVALGPGIGPALRVGATLARALSLKYNKKLVPVNHGIGHIEIGYLTTEAKDPLILYLSGGNTIITTFYKGRFRIFGETLDIALGNMMDVFVREVNLAPPYIINGKHAIDICSEKGSKLLKLPYVVKGQDMSFSGLLTAALRLVGKEKLEDICYSIREIAFDMLLEATERALALTSKKELMIVGGVAASVSLRKKLEELGKEWDVQIKIVPPEFAGDNGAMIAYAGMLAASKGVFIDVDKSYIRPRWRVDEVDIPWRN | – | – | – | 1 Kae1 per Pcc1 (printed as 2:2)
